In the Human Domainome abundance scans (Beltran et al. 2025):

B1: E3 ubiquitin-protein ligase TRIM36, residues 208 to 252; numbered along this chain, Q9NQ86 (parent)
chain: KILMCPEHETERINMYCELCRRPVCHLCKLGGNHANHRVTTMSSA

Variants of: B1
Experiment: abundance fitness (aPCA) (normalised: wild type 0, dead -1); higher = more abundant; growth selection in yeast, the domain comes from the species named
Conditions: Homo sapiens

Abundance fitness of substitutions, site by site:
H26: K -0.384, E -0.022, V -0.016, M -0.237, S 0.004, P 0.021, W -0.324, N -0.215
E18: T -0.147, G -0.123, W -0.236, L -0.196, K -0.172, D 0.116, P -0.269, M -0.178, V -0.172
C5: H -0.873, R -0.976, Q -0.996, M -1.02, E -0.655, P -1.06, N -0.84, L -0.929, D -0.536
S43: D -0.063, G -0.022, H -0.067, T -0.093, I -0.272, V -0.075, M -0.13, Y -0.439, C -0.129, N -0.042
M4: W -0.191, P -0.288, V -0.077, C -0.075, N -0.101, H -0.133
V24: M -0.133, N -0.49, D -0.453, R -0.44, K -0.533
N33: G 0.028, D 0.007, P 0.092, L -0.028, W -0.178, A 0.071
K29: I -0.13, V 0.004, T -0.009, R -0.025, G -0.009, Q 0.019, F 0.001, M -0.057, P -0.043
T41: Q -0.11, D -0.026, F -0.189, S -0.043, G 0.003, W -0.249, I -0.158, E 0.071, A -0.111, H -0.526, C -0.112
T40: Y -0.191, R -0.089, K -0.112, M -0.318, L -0.243, Q -0.014, P 0.003, N 0.141
C25: K -0.572, R -0.729, P -0.723, A -0.603, T -0.612, L -0.81, V -0.854, F -0.752, Q -0.532, M -0.618
C28: W -0.91, Q -0.399, G -0.608, S -0.445, L -0.826, F -1.14, R -0.637, P -0.579, T -0.777, D 0.302
C20: G -0.595, Q -0.504, D -0.393, W -1.16
N36: H -0.05, L -0.097, T -0.024, V -0.202, W -0.299, S -0.052, D -0.005, E 0.039, A 0.029
P23: Q -0.1, H -0.113, C -0.2, E 0.037, R -0.148, M -0.189, G 0.006
R38: T 0.075, C 0.017, K -0.006
E11: V -0.126, Q -0.079, L -0.196, G -0.047
L3: Y -0.008, G -0.016, P -0.128, T 0.036, A -0.001, S -0.007, R -0.114
N14: G -0.152, Q 0.018, H 0.055, L 0.036, A -0.037, M 0.073, S -0.041
M42: T 0.097, I -0.282, G 0.123, D 0.039, Q 0.067, S 0.06, F -0.034, A 0.12, K 0.079, L -0.031
V39: A 0.079, R -0.064, G 0.079, T 0.054, M 0.028, Q 0.008, F -0.103
K1: L -0.388, H -0.283, G -0.273, S -0.396, W -0.508, N -0.101, C -0.573, T -0.157, V -0.243, Q -0.236
A35: S -0.052, Y -0.137, E 0.009, I 0.255, V -0.011, H -0.149, D 0.085
T10: C -0.06, P -0.015, K 0.041, Q 0.021, L -0.142, Y -0.171, W -0.273, V -0.161, E -0.049
I2: P -0.386, T -0.097, M -0.068, K -0.234, Y -0.532, E -0.042, N 0.011, W -0.405, H -0.139, L -0.083, F -0.001
R22: L -0.029, Y -0.265, V -0.01, G -0.116, H 0.013, S 0.047, Q 0.036, F -0.113, A 0.01, C -0.118, P -0.344
G32: V -0.163, A 0.028, R -0.138, W -0.297, L -0.144
E9: K 0.079, R -0.072, A -0.043, H -0.069, V -0.051, S 0.07, P 0.075, I -0.042, L -0.04
R21: L -0.084, G -0.116, P -0.387, T -0.061, Y 0.027, S -0.002, D 0.067
H8: N -0.819, A -0.951, Y -0.983, T -0.72, G -0.766, L -1.24, R -0.841, M -1.4, K -0.638, C -0.611, S -0.786
Y16: M 0.11, W -0.04, A -0.264, H 0.082
E7: L -0.127, C -0.209, N -0.169, G -0.292, P -0.783, W -0.315
L19: D 0.021, P 0.029, N 0.169, V 0.039, S 0.069, C 0.137, M 0.004
H34: G -0.288, M -0.431, W -0.733, C 0.033, K -0.485, T -0.338, E -0.272, I -0.738, Y -0.562, S -0.318, P -0.391
L30: R 0.045, I -0.05, F -0.206, M -0.041, D 0.083, E 0.09, Y -0.549, A 0.094, C -0.023
G31: D -0.109, F -0.218, E -0.111, C -0.094, Y -0.176, P -0.285, S -0.007, I -0.203, W -0.438, L -0.259, N -0.058
L27: N 0.005
S44: T -0.028, D 0.069, W -0.274, V -0.047, C -0.208, R -0.1
I13: L 0.032, G 0.145, M 0.049, P 0.166, R -0.143, W -0.035
C17: E -0.763, Y -0.862, T -0.796, V -0.813, S -0.897, L -1.04
R12: S -0.38, D -0.539, E -0.016
P6: M -0.224, Y -0.228, F -0.234, A -0.072, H -0.108, E -0.016, I -0.219
H37: E -0.038, L -0.26, C -0.007, Y -0.36, I -0.529, G -0.127, T -0.208, P -0.194, F -0.486
M15: E -0.024, A -0.166, C 0.12
A45: T -0.143, G 0.023, M -0.232, N -0.549, K -0.265, V -0.091
